# Laboratory results: PMC2953525, “Subtle Alterations in PCNA-Partner Interactions Severely Impair DNA Replication and Repair” (PLoS Biology, 2010)
# How the values were obtained:
# Msh6 = assay: Yeast two hybrid (Y2H) analysis of PCNA-partner interaction; format: binding; settings: YRG2 strain, growth on selective agar plates lacking histidine; growth similar to WT PCNA denoted as 1
# Experimental: (§1) For the Y2H assay, we used the YRG2 host strain, shown to be highly efficient in coupling the strength of protein-protein interactions with growth on media lacking histidine. Selected PCNA mutants were characterized for their ability to bind each of 12 main PCNA partners to obtain specificity profiles (Table 1, Table S1, and Figures S4–S5). […] However, in some cases a strong trade-off between the bindings of different partners was observed.
# (§2) Y2H analysis was performed using the Yeast Two Hybrid Phagemid vector kit (Stratagene), following the manufacturer's instructions. The pAD-PCNA-WT/mutant plasmids were used as bait while plasmids encoding 12 different PCNA partners (Table 1 and Table S1) were used as prey. The YRG2 host strain (Stratagene) was cotransformed with pAD-PCNA WT/mutant and pBD-partner plasmids in all possible combinations using the LiAC method. Single transformants were grown in liquid SC-Leu-Trp to O.D600 10, washed twice with DDW, and diluted to an initial OD600 of 0.3. A series of 10-fold serial dilutions was then spotted onto selective SC-Leu-Trp-His plates and incubated at 30°C for 3 d. For quantitative Y2H, the generation time of the indicated mutants and their respective partners were calculated from their growth curves in liquid SC-Leu-Trp-His media. Cells were grown overnight in SC-Leu-Trp, washed twice with ddH2O, and diluted by a factor of 1∶50 into 10 ml of pre-warmed SC-Leu-Trp-His. O.D600 measurements of the cultures were taken at the indicated time; the generation time (τ) was calculated from the growth curves according to the equation ODt = OD0×2^t/τ. The generation time calculated for each culture is an average of at least 3 independent experiments.
# Pol32 = assay: as above; format: binding; settings: YRG2 strain, growth on selective agar plates lacking histidine; growth similar to WT PCNA denoted as 1
# Experimental: as §1, §2
# Rad27 = assay: as above; format: binding; settings: footnote c: generation time in liquid selective media lacking histidine relative to cells expressing WT PCNA; average of at least 3 independent experiments
# Experimental: as §1, §2
# Rad30 = assay: as above; format: binding; settings: YRG2 strain, growth on selective agar plates lacking histidine; growth similar to WT PCNA denoted as 1
# Experimental: as §1, §2
# Ung1 = assay: as above; format: binding; settings: YRG2 strain, growth on selective agar plates lacking histidine; growth similar to WT PCNA denoted as 1
# Experimental: as §1, §2
# Apn2 = assay: as above; format: binding; parameters: key: ++: major increase in growth; +: moderate increase in growth; similar growth as the WT PCNA-expressing cells; -: minor decrease in growth; --: moderate decrease in growth; ---: major decrease in growth; settings: spotting onto selective agar plates; PCNA fused to AD, partner to BD
# Experimental: as §2
# (§3) Table S1: Yeast two hybrid analysis of binding of selected PCNA mutants with seven additional partners not described in Table 1 of the main text. […]
# (§4) pol30-Rad30E2 WT WT WT WT WT WT - pol30-Rad30E9 WT WT WT WT WT WT WT pol30-Rad27E6 WT WT WT WT + WT WT pol30-Rad27E31 WT WT WT WT + WT WT pol30-Rad27L1 WT -- WT WT -- WT WT pol30-Rad27L2 WT -- WT WT -- WT WT pol30-Pol32E5 WT WT WT WT WT WT WT pol30-Pol32E9 - WT WT WT WT WT WT pol30-Msh6E2 WT WT + WT WT WT WT pol30-Msh6E6 WT WT ++ WT WT WT WT pol30-Ung1E3 WT - WT WT WT WT WT pol30-79 --- --- --- - --- --- --- a PCNA mutants with enhanced affinities for the different target partners (see Table 1, text). b PCNA mutants were fused to the activating domain (AD), while the different partners were fused to the DNA-binding domain (BD). The growth of the resulting Y2H strains was compared to the growth of the WT PCNA-expressing strain following spotting onto selective agar plates (see Material and Methods). Growth rates on the agar plates were scored and tabulated as follows: ++ major increase in growth; + moderate increase in growth; WT-similar growth as the WT PCNA-expressing cells; - minor decrease in growth; -- moderate decrease in growth; --- major decrease in growth. ND-Not determined.
# Cac1 = assay: as above; format: binding; parameters: key: ++: major increase in growth; +: moderate increase in growth; similar growth as the WT PCNA-expressing cells; -: minor decrease in growth; --: moderate decrease in growth; ---: major decrease in growth; settings: spotting onto selective agar plates; PCNA fused to AD, partner to BD
# Experimental: as §2, §3, §4
# Cdc9 = assay: as above; format: binding; parameters: key: ++: major increase in growth; +: moderate increase in growth; similar growth as the WT PCNA-expressing cells; -: minor decrease in growth; --: moderate decrease in growth; ---: major decrease in growth; settings: spotting onto selective agar plates; PCNA fused to AD, partner to BD
# Experimental: as §2, §3, §4
# Eco1 = assay: as above; format: binding; parameters: key: ++: major increase in growth; +: moderate increase in growth; similar growth as the WT PCNA-expressing cells; -: minor decrease in growth; --: moderate decrease in growth; ---: major decrease in growth; settings: spotting onto selective agar plates; PCNA fused to AD, partner to BD
# Experimental: as §2, §3, §4
# Msh3 = assay: as above; format: binding; parameters: key: ++: major increase in growth; +: moderate increase in growth; similar growth as the WT PCNA-expressing cells; -: minor decrease in growth; --: moderate decrease in growth; ---: major decrease in growth; settings: spotting onto selective agar plates; PCNA fused to AD, partner to BD
# Experimental: as §2, §3, §4
# Rfc1 = assay: as above; format: binding; parameters: key: ++: major increase in growth; +: moderate increase in growth; similar growth as the WT PCNA-expressing cells; -: minor decrease in growth; --: moderate decrease in growth; ---: major decrease in growth; settings: spotting onto selective agar plates; PCNA fused to AD, partner to BD
# Experimental: as §2, §3, §4
# Rrm3 = assay: as above; format: binding; parameters: key: ++: major increase in growth; +: moderate increase in growth; similar growth as the WT PCNA-expressing cells; -: minor decrease in growth; --: moderate decrease in growth; ---: major decrease in growth; settings: spotting onto selective agar plates; PCNA fused to AD, partner to BD
# Experimental: as §2, §3, §4
# yeast strains = assay: Viability of haploid strains with mutant as sole source of PCNA (plasmid shuffling, 5FOA); format: cell-based; settings: for viability of strain containing the mutant as the sole source of PCNA: plasmid shuffling, selection on 5FOA; for effect of rad27 deletion on lethality of the mutant strain: rad27-deleted background, 5-FOA
# Description: To study the in vivo ability of PCNA mutants to promote DNA replication and repair in yeast, we adopted a plasmid shuffling method to create haploid yeast strains carrying each mutant as the sole source of PCNA (see Materials and Methods). This approach allowed us to identify PCNA mutants leading to cell death, indicating their inability to support essential DNA replication processes (Figure 5A). […] To verify that the replication defects in the mutant strains (Figure 5) are not due to reduced expression levels of the PCNA proteins, we confirmed the expression level of PCNA using western blot analysis and observed similar expression levels of all PCNA mutants, relative to WT PCNA (Figure S7).
# Figure 5 In vivo phenotypic analysis of PCNA mutants. (A) Non-viable strains containing PCNA mutants with increased binding affinity for Rad27 as the sole version of PCNA. Yeast strains containing WT PCNA expressed from a URA3 plasmid and mutant PCNA genes expressed from a LEU2 plasmid are viable (middle). Upon selection for loss of WT PCNA using 5-floororotic acid (5FOA), PCNA mutant strains are non-viable (right). (B) MMS (middle) and HU (right) sensitivity of strains containing PCNA mutants with increased binding affinity for Rad27, Pol32, Rad30, Msh6, and Ung1 and strains containing WT PCNA in which the same partners were deleted. For binding characterization and sequences of the mutants, see Table 1.
# Novel haploids containing PCNA mutants were generated using the plasmid shuffling method. Briefly, a pol30::KanMX magic marker heterozygote diploid strain BY4743 (Open Biosystem) was transformed with plasmid pRS316-POL30. Following dissection of the diploid, a haploid containing the CAN+ gene and plasmid pRS316-POL30 as a sole source of PCNA was generated. This host strain was transformed with selected pRS315-pol30 mutants, plated on SC-Ura-Leu plates, followed by replica plating to SC-Leu+5FOA plates. Haploids, containing PCNA mutants as a sole source, were further verified by plating on either SC-Leu or SC-Ura plates. For testing selected PCNA mutants, a haploid containing rad27::HYG, rad30::HYG, pol32::HYG, msh6::HYG, or ung1::HYG were generated using plasmid pAG32 by conventional genetic approaches. Growth of the PCNA mutant strains in the presence of 120 mM HU (Toronto Research Chemicals) or 0.02% MMS (Sigma) was performed as described. To examine the effects of partner overexpression on pol30 mutant strains, these strains were transformed with various plasmids containing GST-tagged PCNA partner encoding genes under the control of a GAL1/10 inducible promoter, as previously described. Overnight cultures were plated in serial dilutions on SC-Ura containing either glucose or galactose with or without DNA-damaging agents, as described above.
molecule,measurement,setting,value
"pol30-Rad27E31: PCNA mutant evolved for Rad27, IDCL sequence DGDYDVLKIREL (protein, left off: Gal4 activation domain, end not stated, kept) MLEAKFEEASLFKRIIDGFKDCVQLVNFQCKEDGIIAQAVDDSRVLLVSLEIGVEAFQEYRCDHPVTLGMDLTSLSKILRCGNNTDTLTLIADNTPDSIILLFEDTKKDRIAEYSLKLMDGDYDVLKIRELQYDSTLSLPSSEFSKIVRDLSQLSDSINIMITKETIKFVADGDIGSGSVIIKPFVDMEHPETSIKLEMDQPVDLTFGAKYLLDIIKGSSLSDRVGIRLSSEAPALFQFDLKSGFLQFFLAPKFNDEE",Binding of PCNA Mutants to Target Partners: Msh6 (Y2H),Msh6,1
same,Binding of PCNA Mutants to Target Partners: Pol32 (Y2H),Pol32,1
same,"Binding of PCNA Mutants to Target Partners: Rad27, fold increase or decrease (quantitative Y2H)",Rad27,1.5 ^c fold
same,Binding of PCNA Mutants to Target Partners: Rad30 (Y2H),Rad30,1
same,Binding of PCNA Mutants to Target Partners: Ung1 (Y2H),Ung1,1
same,Y2H growth relative to WT PCNA-expressing strain: Apn2,Apn2,WT
same,Y2H growth relative to WT PCNA-expressing strain: Cac1,Cac1,+
same,Y2H growth relative to WT PCNA-expressing strain: Cdc9,Cdc9,WT
same,Y2H growth relative to WT PCNA-expressing strain: Eco1,Eco1,WT
same,Y2H growth relative to WT PCNA-expressing strain: Msh3,Msh3,WT
same,Y2H growth relative to WT PCNA-expressing strain: Rfc1,Rfc1,WT
same,Y2H growth relative to WT PCNA-expressing strain: Rrm3,Rrm3,WT
"pol30-Rad27L1: PCNA mutant evolved for Rad27, two-residue deletion, IDCL sequence D––VDILKIGEL (protein, left off: Gal4 activation domain, end not stated, kept) MLEAKFEEASLFKRIIDGFKDCVQLVNFQCKEDGIIAQAVDDSRVLLVSLEIGVEAFQEYRCDHPVTLGMDLTSLSKILRCGNNTDTLTLIADNTPDSIILLFEDTKKDRIAEYSLKLMDVDILKIGELQYDSTLSLPSSEFSKIVRDLSQLSDSINIMITKETIKFVADGDIGSGSVIIKPFVDMEHPETSIKLEMDQPVDLTFGAKYLLDIIKGSSLSDRVGIRLSSEAPALFQFDLKSGFLQFFLAPKFNDEE",Binding of PCNA Mutants to Target Partners: Msh6 (Y2H),Msh6,1
same,Binding of PCNA Mutants to Target Partners: Pol32 (Y2H),Pol32,1
same,"Binding of PCNA Mutants to Target Partners: Rad27, fold increase or decrease (quantitative Y2H)",Rad27,1.7 ^c fold
same,Binding of PCNA Mutants to Target Partners: Ung1 (Y2H),Ung1,1
same,Y2H growth relative to WT PCNA-expressing strain: Apn2,Apn2,WT
same,Y2H growth relative to WT PCNA-expressing strain: Cac1,Cac1,--
same,Y2H growth relative to WT PCNA-expressing strain: Cdc9,Cdc9,WT
same,Y2H growth relative to WT PCNA-expressing strain: Eco1,Eco1,--
same,Y2H growth relative to WT PCNA-expressing strain: Msh3,Msh3,WT
same,Y2H growth relative to WT PCNA-expressing strain: Rfc1,Rfc1,WT
same,Y2H growth relative to WT PCNA-expressing strain: Rrm3,Rrm3,WT
same,viability of strain containing the mutant as the sole source of PCNA,yeast strains,lethality
same,effect of rad27 deletion on lethality of the mutant strain,yeast strains,suppressed the lethality
"pol30-Rad27L2: PCNA mutant evolved for Rad27, two-residue deletion, IDCL sequence D––VDTLKITEL (protein, left off: Gal4 activation domain, end not stated, kept) MLEAKFEEASLFKRIIDGFKDCVQLVNFQCKEDGIIAQAVDDSRVLLVSLEIGVEAFQEYRCDHPVTLGMDLTSLSKILRCGNNTDTLTLIADNTPDSIILLFEDTKKDRIAEYSLKLMDVDTLKITELQYDSTLSLPSSEFSKIVRDLSQLSDSINIMITKETIKFVADGDIGSGSVIIKPFVDMEHPETSIKLEMDQPVDLTFGAKYLLDIIKGSSLSDRVGIRLSSEAPALFQFDLKSGFLQFFLAPKFNDEE",Binding of PCNA Mutants to Target Partners: Msh6 (Y2H),Msh6,1
same,Binding of PCNA Mutants to Target Partners: Pol32 (Y2H),Pol32,1
same,"Binding of PCNA Mutants to Target Partners: Rad27, fold increase or decrease (quantitative Y2H)",Rad27,1.5 ^c fold
same,Binding of PCNA Mutants to Target Partners: Ung1 (Y2H),Ung1,1
same,Y2H growth relative to WT PCNA-expressing strain: Apn2,Apn2,WT
same,Y2H growth relative to WT PCNA-expressing strain: Cac1,Cac1,--
same,Y2H growth relative to WT PCNA-expressing strain: Cdc9,Cdc9,WT
same,Y2H growth relative to WT PCNA-expressing strain: Eco1,Eco1,--
same,Y2H growth relative to WT PCNA-expressing strain: Msh3,Msh3,WT
same,Y2H growth relative to WT PCNA-expressing strain: Rfc1,Rfc1,WT
same,Y2H growth relative to WT PCNA-expressing strain: Rrm3,Rrm3,WT
same,viability of strain containing the mutant as the sole source of PCNA,yeast strains,lethality
same,effect of rad27 deletion on lethality of the mutant strain,yeast strains,suppressed the lethality
